In data set [1] the target is FITC-labeled PIASγ peptide derived from the essential PIASγ LXXLL motif. In words: fluorescence polarisation.
Data set [2] concerns the molecule itself. Briefly: SEC.

As to “Nurr1 ligand-binding domain (LBD) (from UniProt P43354 328-598) (domain or fragment)”, the Kd in data set [1] was found to be 3.5 µM.

B1: Nurr1 ligand-binding domain (LBD) (domain or fragment)
chain: MVKEVVRTDSLKGRRGRLPSKPKSPQEPSPPSPPVSLISALVRAHVDSNPAMTSLDYSRFQANPDYQMSGDDTQHIQQFYDLLTGSMEIIRGWAEKIPGFADLPKADQDLLFESAFLELFVLRLAYRSNPVEGKLIFCNGVVLHRLQCVRGFGEWIDSIVEFSSNLQNMNIDISAFSCIAALAMVTERHGLKEPKRVEELQNKIVNCLKDHVTFNNGGLNRPNYLSKLLGKLPELRTLCTQGLQRIFYLKLEDLVPPPAIIDKLFLDTLPF
As for B1, the “stoichiometry N” value in data set [2] stood at 2.

(Values after publication PMC4946999 (ACS chemical biology, 2016).)
